Results from patent US20110105397A1, “METHOD FOR TREATING HEART FAILURE WITH STRESSCOPIN-LIKE PEPTIDES” (priority 2009, published 2011).
Where no end group is shown, it is not given here. The star is where a group is joined. Succinimide(1-Et,3-yl) = CCN1C(=O)CC(*)C1=O

Biological target: T1, human corticotrophin releasing hormone receptor type 2 (CRHR2) (human, UniProt Q13324 1-411)
T1 sequence (looked up): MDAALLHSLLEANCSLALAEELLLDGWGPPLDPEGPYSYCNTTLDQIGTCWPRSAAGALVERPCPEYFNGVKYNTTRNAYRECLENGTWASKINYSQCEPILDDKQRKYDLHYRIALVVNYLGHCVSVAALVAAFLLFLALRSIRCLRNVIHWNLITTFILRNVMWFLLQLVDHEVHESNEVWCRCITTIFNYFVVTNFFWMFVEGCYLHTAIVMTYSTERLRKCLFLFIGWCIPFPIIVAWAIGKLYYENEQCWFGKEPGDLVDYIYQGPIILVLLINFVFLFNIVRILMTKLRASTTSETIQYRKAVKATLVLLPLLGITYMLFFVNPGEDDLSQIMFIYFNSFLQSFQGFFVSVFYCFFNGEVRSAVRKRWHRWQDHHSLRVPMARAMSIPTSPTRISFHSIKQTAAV
Assay: cell-based or functional assay

B1: Cys-variant of stresscopin peptide with N-Ethylsuccinimide (NES) reactive group SEQ ID NO: 47 (peptide)
peptide: TKFTLSLDVPTNIMNLLFNIAKAKNLRC(Succinimide(1-Et,3-yl))QAAANAHLMAQI-NH2
modifications: N-terminus assumed
SMILES: CC[C@H](C)[C@H](NC(=O)[C@H](CCC(N)=O)NC(=O)[C@H](C)NC(=O)[C@H](CCSC)NC(=O)[C@H](CC(C)C)NC(=O)[C@H](Cc1c[nH]cn1)NC(=O)[C@H](C)NC(=O)[C@H](CC(N)=O)NC(=O)[C@H](C)NC(=O)[C@H](C)NC(=O)[C@H](C)NC(=O)[C@H](CCC(N)=O)NC(=O)[C@H](CSC1CC(=O)N(CC)C1=O)NC(=O)[C@H](CCCNC(=N)N)NC(=O)[C@H](CC(C)C)NC(=O)[C@H](CC(N)=O)NC(=O)[C@H](CCCCN)NC(=O)[C@H](C)NC(=O)[C@H](CCCCN)NC(=O)[C@H](C)NC(=O)[C@@H](NC(=O)[C@H](CC(N)=O)NC(=O)[C@H](Cc1ccccc1)NC(=O)[C@H](CC(C)C)NC(=O)[C@H](CC(C)C)NC(=O)[C@H](CC(N)=O)NC(=O)[C@H](CCSC)NC(=O)[C@@H](NC(=O)[C@H](CC(N)=O)NC(=O)[C@@H](NC(=O)[C@@H]1CCCN1C(=O)[C@@H](NC(=O)[C@H](CC(=O)O)NC(=O)[C@H](CC(C)C)NC(=O)[C@H](CO)NC(=O)[C@H](CC(C)C)NC(=O)[C@@H](NC(=O)[C@H](Cc1ccccc1)NC(=O)[C@H](CCCCN)NC(=O)[C@@H](N)[C@@H](C)O)[C@@H](C)O)C(C)C)[C@@H](C)O)[C@@H](C)CC)[C@@H](C)CC)C(N)=O
For B1, the “Log DR” value was -0.03 log10 and the pA50 was 9.5 -log10(M).

B2: Cys-variant of stresscopin peptide with N-Ethylsuccinimide (NES) reactive group SEQ ID NO: 51 (peptide)
peptide: TKFTLSLDVPTNIMNLLFNC(Succinimide(1-Et,3-yl))AKAKNLRAQAAANAHLMAQI-NH2
modifications: N-terminus assumed
SMILES: CC[C@H](C)[C@H](NC(=O)[C@H](CCC(N)=O)NC(=O)[C@H](C)NC(=O)[C@H](CCSC)NC(=O)[C@H](CC(C)C)NC(=O)[C@H](Cc1c[nH]cn1)NC(=O)[C@H](C)NC(=O)[C@H](CC(N)=O)NC(=O)[C@H](C)NC(=O)[C@H](C)NC(=O)[C@H](C)NC(=O)[C@H](CCC(N)=O)NC(=O)[C@H](C)NC(=O)[C@H](CCCNC(=N)N)NC(=O)[C@H](CC(C)C)NC(=O)[C@H](CC(N)=O)NC(=O)[C@H](CCCCN)NC(=O)[C@H](C)NC(=O)[C@H](CCCCN)NC(=O)[C@H](C)NC(=O)[C@H](CSC1CC(=O)N(CC)C1=O)NC(=O)[C@H](CC(N)=O)NC(=O)[C@H](Cc1ccccc1)NC(=O)[C@H](CC(C)C)NC(=O)[C@H](CC(C)C)NC(=O)[C@H](CC(N)=O)NC(=O)[C@H](CCSC)NC(=O)[C@@H](NC(=O)[C@H](CC(N)=O)NC(=O)[C@@H](NC(=O)[C@@H]1CCCN1C(=O)[C@@H](NC(=O)[C@H](CC(=O)O)NC(=O)[C@H](CC(C)C)NC(=O)[C@H](CO)NC(=O)[C@H](CC(C)C)NC(=O)[C@@H](NC(=O)[C@H](Cc1ccccc1)NC(=O)[C@H](CCCCN)NC(=O)[C@@H](N)[C@@H](C)O)[C@@H](C)O)C(C)C)[C@@H](C)O)[C@@H](C)CC)C(N)=O
For B2, the “Log DR” value was 0.68 log10 and the pA50 was 8.79 -log10(M).

In the case of TKFTLSLDVPTNIMNLLFNIAKAKNLRCQAAANAHLMAQI (NES-PEG MW80000 & BRANCHED on Cys 28; C-terminal amide (-NH2)) [Pegylated Cys-variant stresscopin-like peptide, NES-PEG MW80000 & BRANCHED, SEQ ID NO: 101], the “Log DR” value is reported as 1.9 log10 and the pA50 is reported as 7.84 -log10(M).

B3: Cys-variant of stresscopin peptide with N-Ethylsuccinimide (NES) reactive group SEQ ID NO: 48 (peptide)
peptide: TKFTLSLDVPTNIMNLLFNIAKAKNC(Succinimide(1-Et,3-yl))RAQAAANAHLMAQI-NH2
modifications: N-terminus assumed
SMILES: CC[C@H](C)[C@H](NC(=O)[C@H](CCC(N)=O)NC(=O)[C@H](C)NC(=O)[C@H](CCSC)NC(=O)[C@H](CC(C)C)NC(=O)[C@H](Cc1c[nH]cn1)NC(=O)[C@H](C)NC(=O)[C@H](CC(N)=O)NC(=O)[C@H](C)NC(=O)[C@H](C)NC(=O)[C@H](C)NC(=O)[C@H](CCC(N)=O)NC(=O)[C@H](C)NC(=O)[C@H](CCCNC(=N)N)NC(=O)[C@H](CSC1CC(=O)N(CC)C1=O)NC(=O)[C@H](CC(N)=O)NC(=O)[C@H](CCCCN)NC(=O)[C@H](C)NC(=O)[C@H](CCCCN)NC(=O)[C@H](C)NC(=O)[C@@H](NC(=O)[C@H](CC(N)=O)NC(=O)[C@H](Cc1ccccc1)NC(=O)[C@H](CC(C)C)NC(=O)[C@H](CC(C)C)NC(=O)[C@H](CC(N)=O)NC(=O)[C@H](CCSC)NC(=O)[C@@H](NC(=O)[C@H](CC(N)=O)NC(=O)[C@@H](NC(=O)[C@@H]1CCCN1C(=O)[C@@H](NC(=O)[C@H](CC(=O)O)NC(=O)[C@H](CC(C)C)NC(=O)[C@H](CO)NC(=O)[C@H](CC(C)C)NC(=O)[C@@H](NC(=O)[C@H](Cc1ccccc1)NC(=O)[C@H](CCCCN)NC(=O)[C@@H](N)[C@@H](C)O)[C@@H](C)O)C(C)C)[C@@H](C)O)[C@@H](C)CC)[C@@H](C)CC)C(N)=O
In the case of B3, the “Log DR” value is reported as 0.03 log10 and the pA50 is reported as 9.44 -log10(M).

B4: Cys-variant of stresscopin peptide with N-Ethylsuccinimide (NES) reactive group SEQ ID NO: 50 (peptide)
peptide: TKFTLSLDVPTNIMNLLFNIAKAC(Succinimide(1-Et,3-yl))NLRAQAAANAHLMAQI-NH2
modifications: N-terminus assumed
SMILES: CC[C@H](C)[C@H](NC(=O)[C@H](CCC(N)=O)NC(=O)[C@H](C)NC(=O)[C@H](CCSC)NC(=O)[C@H](CC(C)C)NC(=O)[C@H](Cc1c[nH]cn1)NC(=O)[C@H](C)NC(=O)[C@H](CC(N)=O)NC(=O)[C@H](C)NC(=O)[C@H](C)NC(=O)[C@H](C)NC(=O)[C@H](CCC(N)=O)NC(=O)[C@H](C)NC(=O)[C@H](CCCNC(=N)N)NC(=O)[C@H](CC(C)C)NC(=O)[C@H](CC(N)=O)NC(=O)[C@H](CSC1CC(=O)N(CC)C1=O)NC(=O)[C@H](C)NC(=O)[C@H](CCCCN)NC(=O)[C@H](C)NC(=O)[C@@H](NC(=O)[C@H](CC(N)=O)NC(=O)[C@H](Cc1ccccc1)NC(=O)[C@H](CC(C)C)NC(=O)[C@H](CC(C)C)NC(=O)[C@H](CC(N)=O)NC(=O)[C@H](CCSC)NC(=O)[C@@H](NC(=O)[C@H](CC(N)=O)NC(=O)[C@@H](NC(=O)[C@@H]1CCCN1C(=O)[C@@H](NC(=O)[C@H](CC(=O)O)NC(=O)[C@H](CC(C)C)NC(=O)[C@H](CO)NC(=O)[C@H](CC(C)C)NC(=O)[C@@H](NC(=O)[C@H](Cc1ccccc1)NC(=O)[C@H](CCCCN)NC(=O)[C@@H](N)[C@@H](C)O)[C@@H](C)O)C(C)C)[C@@H](C)O)[C@@H](C)CC)[C@@H](C)CC)C(N)=O
B4 was tested, and the “Log DR” value was -0.01 log10 and the pA50 was 9.48 -log10(M).

B5: Cys-variant of stresscopin peptide with N-Ethylsuccinimide (NES) reactive group SEQ ID NO: 49 (peptide)
peptide: TKFTLSLDVPTNIMNLLFNIAKAKC(Succinimide(1-Et,3-yl))LRAQAAANAHLMAQI-NH2
modifications: N-terminus assumed
SMILES: CC[C@H](C)[C@H](NC(=O)[C@H](CCC(N)=O)NC(=O)[C@H](C)NC(=O)[C@H](CCSC)NC(=O)[C@H](CC(C)C)NC(=O)[C@H](Cc1c[nH]cn1)NC(=O)[C@H](C)NC(=O)[C@H](CC(N)=O)NC(=O)[C@H](C)NC(=O)[C@H](C)NC(=O)[C@H](C)NC(=O)[C@H](CCC(N)=O)NC(=O)[C@H](C)NC(=O)[C@H](CCCNC(=N)N)NC(=O)[C@H](CC(C)C)NC(=O)[C@H](CSC1CC(=O)N(CC)C1=O)NC(=O)[C@H](CCCCN)NC(=O)[C@H](C)NC(=O)[C@H](CCCCN)NC(=O)[C@H](C)NC(=O)[C@@H](NC(=O)[C@H](CC(N)=O)NC(=O)[C@H](Cc1ccccc1)NC(=O)[C@H](CC(C)C)NC(=O)[C@H](CC(C)C)NC(=O)[C@H](CC(N)=O)NC(=O)[C@H](CCSC)NC(=O)[C@@H](NC(=O)[C@H](CC(N)=O)NC(=O)[C@@H](NC(=O)[C@@H]1CCCN1C(=O)[C@@H](NC(=O)[C@H](CC(=O)O)NC(=O)[C@H](CC(C)C)NC(=O)[C@H](CO)NC(=O)[C@H](CC(C)C)NC(=O)[C@@H](NC(=O)[C@H](Cc1ccccc1)NC(=O)[C@H](CCCCN)NC(=O)[C@@H](N)[C@@H](C)O)[C@@H](C)O)C(C)C)[C@@H](C)O)[C@@H](C)CC)[C@@H](C)CC)C(N)=O
B5 was tested, and the “Log DR” value was 0.11 log10 and the pA50 was 9.36 -log10(M).

B6: Cys-variant of stresscopin peptide with N-Ethylsuccinimide (NES) reactive group SEQ ID NO: 52 (peptide)
peptide: TKFTLSLDVPTNIMNLLFC(Succinimide(1-Et,3-yl))IAKAKNLRAQAAANAHLMAQI-NH2
modifications: N-terminus assumed
SMILES: CC[C@H](C)[C@H](NC(=O)[C@H](CCC(N)=O)NC(=O)[C@H](C)NC(=O)[C@H](CCSC)NC(=O)[C@H](CC(C)C)NC(=O)[C@H](Cc1c[nH]cn1)NC(=O)[C@H](C)NC(=O)[C@H](CC(N)=O)NC(=O)[C@H](C)NC(=O)[C@H](C)NC(=O)[C@H](C)NC(=O)[C@H](CCC(N)=O)NC(=O)[C@H](C)NC(=O)[C@H](CCCNC(=N)N)NC(=O)[C@H](CC(C)C)NC(=O)[C@H](CC(N)=O)NC(=O)[C@H](CCCCN)NC(=O)[C@H](C)NC(=O)[C@H](CCCCN)NC(=O)[C@H](C)NC(=O)[C@@H](NC(=O)[C@H](CSC1CC(=O)N(CC)C1=O)NC(=O)[C@H](Cc1ccccc1)NC(=O)[C@H](CC(C)C)NC(=O)[C@H](CC(C)C)NC(=O)[C@H](CC(N)=O)NC(=O)[C@H](CCSC)NC(=O)[C@@H](NC(=O)[C@H](CC(N)=O)NC(=O)[C@@H](NC(=O)[C@@H]1CCCN1C(=O)[C@@H](NC(=O)[C@H](CC(=O)O)NC(=O)[C@H](CC(C)C)NC(=O)[C@H](CO)NC(=O)[C@H](CC(C)C)NC(=O)[C@@H](NC(=O)[C@H](Cc1ccccc1)NC(=O)[C@H](CCCCN)NC(=O)[C@@H](N)[C@@H](C)O)[C@@H](C)O)C(C)C)[C@@H](C)O)[C@@H](C)CC)[C@@H](C)CC)C(N)=O
B6 was tested, and the “Log DR” value was 0.05 log10 and the pA50 was 9.42 -log10(M).
